Source: publication doi:10.1101/2023.08.25.554718, “Structural mechanism of synergistic targeting of the CX3CR1 nucleosome by PU.1 and C/EBPα”

B1: 162 bp CX3CR1 DNA (dsDNA)
DNA 1: TAGGTGCAGGGCCTCTCGGCTGCTGATCTTCAGCTGGTTGCTGAGAGTTGCAGCATTGCTGAGTCTTAGCAATGGATACTTCCCGATTCCCCTCACAAAAATAGGTCAGTCTGTCTGGCTAGTTCTGTACTTGCAGACACAGGGCATGTGGGGTTCCTATTT
DNA 2: AAATAGGAACCCCACATGCCCTGTGTCTGCAAGTACAGAACTAGCCAGACAGACTGACCTATTTTTGTGAGGGGAATCGGGAAGTATCCATTGCTAAGACTCAGCAATGCTGCAACTCTCAGCAACCAGCTGAAGATCAGCAGCCGAGAGGCCCTGCACCTA
B2: 20 bp C/EBPalpha site DNA (dsDNA)
DNA 1: ATCTTCAGCTGGTTGCTGAG
DNA 2: CTCAGCAACCAGCTGAAGAT

Assays:
PU.1 ETS (ETSPU.1) = PU.1 ETS (ETSPU.1) (mouse, UniProt P17433 165-272); assay: EMSA; EMSA: 20 mM HEPES pH 7.3, 150 mM NaCl, 0.5 mM TCEP, 30 min room temperature, 0.5 uM nucleosome or DNA; FRET: 20 mM HEPES pH 7.1, 100 mM NaCl, 0.5 mM TCEP, 200 n
PU.1 full-length = PU.1 full-length (mouse, UniProt P17433 1-272); assay: EMSA; EMSA: 20 mM HEPES pH 7.3, 150 mM NaCl, 0.5 mM TCEP, 30 min room temperature, 0.5 uM nucleosome or DNA; FRET: 20 mM HEPES pH 7.1, 100 mM NaCl, 0.5 mM TCEP, 200 nM nucleosome; conditions: protein: recombinant; tags: N-terminal His
PU.1 ETS Q218H = PU.1 ETS Q218H (mouse, UniProt P17433 165-272, Q218H); assay: EMSA; little effect of Q218H; EMSA: 20 mM HEPES pH 7.3, 150 mM NaCl, 0.5 mM TCEP, 30 min room temperature, 0.5 uM nucleosome or DNA; FRET: 20 mM HEPES pH 7.1, 100 mM NaCl, 0.5 mM TCEP, 200 n
MBP-DBD C/EBPalpha = MBP-DBD C/EBPalpha (UniProt P53566 214-359); assay: EMSA; 5 uM DNA; MBP fusion assumed; EMSA: 20 mM HEPES pH 7.3, 150 mM NaCl, 0.5 mM TCEP, 30 min room temperature, 0.5 uM nucleosome or DNA; FRET: 20 mM HEPES pH 7.1, 100 mM NaCl, 0.5 mM TCEP, 200 nM nucleosome; conditions: protein: recombinant; tags: N-terminal MBP; chain copies: 2; blunt
Sequence of MBP-DBD C/EBPalpha (P53566 214-359): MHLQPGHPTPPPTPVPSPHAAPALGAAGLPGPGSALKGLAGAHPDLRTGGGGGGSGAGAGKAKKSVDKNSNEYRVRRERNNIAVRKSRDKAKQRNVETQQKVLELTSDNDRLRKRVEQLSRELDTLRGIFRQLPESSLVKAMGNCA

Binder | binding result (PU.1 ETS (ETSPU.1)) | binding result (PU.1 full-length) | binding result (PU.1 ETS Q218H) | binding result (MBP-DBD C/EBPalpha)
B1 | binds | binds | binds | –
B2 | – | – | – | binds
